# Laboratory results taken from PMC9302186, “Defining variant-resistant epitopes targeted by SARS-CoV-2 antibodies: A global consortium study” (Science (New York, N.y.), 2021).
# Target: T1, SARS-CoV-2 spike receptor binding domain, monomeric (SARS-CoV-2, UniProt P0DTC2)
# T1 construct: also called RBD; monomeric RBD
# Assay: SPR
# Details: both partners purified
binder,measurement,value
"CoVIC-259 (antibody, V domains shown, also called RBD-1 community representative) VH: EVQLVESGGGVVQPGRSLRLSCAASGFTFSSYAMHWVRQAPGKGLEWVAVLSYDGSNKYNADSVKGRFTISRDNSKNTLYLQMNSLRVEDTAMYYCARDGVSVTMVRGVIGPLCDYWGQGTLVTVSS VL: not shown",binding result,binds
